According to the domain aggregation screens of Martell et al. (2025):

Test: soluble fraction after stress (log2 fold change); higher = more stays soluble; pooled small domains, quantitative proteomics
Conditions: stress: 75 degC
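Note: 20 min heating vs room temperature control held 20 min.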

| Sequence | soluble fraction (log2) |
| --- | --- |
| HMSQNTHTIPSREDILGIFRSVNAPLDPQSLGKTLQVHADSMDVLVRRLKAMERDGQLKSDASGVFSLAD | 0.185 |
| HMSQNVQDVFLNHVRKSKNPVTVFLVNGVKLQGIITWFDNFSVLLRREGHTQLVYKHAISTVMPSGPIQLF | 0.113 |
| HMSQPALSYAFAKAQGVIVTALGDVAEVARRKGSQPQALAEVRRIAGRPLALREVDDAAFDRLLQDHYARS | -0.646 |
| HMSQQMSYSDFVKAVSARQIREAQIQGDKIYATDSTGNRLTIIRLDNDQRLVDDMINNDVNIIGLEE | 0.177 |
| HMSQSDLASAIGARVTIRLREASGGFRDIVGVLQRFGSGYGELINSKGEALTFSESEIAIWREVKA | -2.5 |
| HMSQTELIIVEEEMDGERLDAFLAEQVEQLSRSAVKNLINEGQVLVNGAKQKASYHVREGDEISIEIPEPQ | 0.836 |
| HMSQTPDLQQERANLGDNADARIEAVDLWANKFFPEEHADAILQIGQTAKGIEALEFIMSKV | -0.0375 |
| HMSQVLVRINQDLNIRSGPGAQYDIIAVYRSGAIASVIGTYNNWYKVNFELDSKSYTGWINGTFTSR | -2.48 |
| HMSQYELEDVEKQRLKFKNGDEKALWLLSDIYKDNSQSYEVRLAALRALSESRHPLIIFDIQSSVK | -0.527 |
| HMSRAAQRLFMSQPPLSRHIRQLEDRLGVTLFVRHTRGLTLTEDGQRVLEMVRPLLDLQDKTYAALSQLT | 0.0487 |
| HMSREMIKSELESISGLGKSGIEKLYTHFINIENIKSASLENIRNIPGISYKVADNIYKHFH | -0.238 |
| HMSRLGINTTIEDIKMVGKIIMPLLKQGQSVYQILASHPEIPYSEKTLYSYIEDNIFKDAGIDISVFDL | -1.32 |
| HMSRLLERARDLMAKPGAWLSAEGGAYALRLSPDRRSRISLTLTETEFRALIDQPGLRVRPGGGWSGRA | -3.05 |
| HMSRMGDSIKSLRSRNNMSQDALAEKLNVTRQAISNWENSKTQPDADTLKNLGIIFNVTVDEIINNDF | 0.0824 |
| HMSRQREWIYDYIQSHPDRHMSVEEIYEGLKAENREVSVATVYRNLKILQDENRIASLMLESGKQVFDK | -0.384 |
| HMSRREEALIALAQRVARQVARTKQPVTLEPMPANERRVIHVALRDNPDVETRSSGEGDQRRVTVYPRQ | -0.228 |
| HMSRRIEIELTSSRPDGSWTWRAAGAREPKGVLDGTLLSQGSKPGDVVKAEAEFDIDGITIVSITQ | -0.405 |
| HMSRSKLNRLDKIKKMLIAQTGISIKEFSASLNVSEITIRRDLNLLEEQGFIRLVNGVAIYRM | -1.75 |
| HMSRSLEIDVLVKALLEQDRRKFMLVTDGTADVTVRYNNALPSLFREGQGVVAEGLMDNGKFIATNVLAK | -0.811 |
| HMSRSLLAALEKLRESHTGSLPASVLSSAQRRSLESFAQTTKSVQMRPSGRGVVFAIINPEVVDKHWRELS | -0.959 |
| HMSRSSQMVNFIRLLSQEKKVSVNSIFSSSVQLSDGIIVKINDFYYRVNLSLDQKTYSLVEVS | -0.483 |
| HMSRVKQERLNRFVEAFEAYFRSVHPGEIDVEYLKSDEFGDIFESILHRVMHTASEEKMHRFKKILLNEM | -2.14 |
| HMSSADIPFSRFIDDVEAQRVEKVTIDGVNVTGRYRSDGAAFKTIIPSQYDGLVPILRQNKVDITVKDA | 0.24 |
| HMSSAMDMISRDVRNADSISISTTTYSKKIDLYNFDRNGDIEELHSYSAKNDLGILYNDEPI | -0.35 |
| HMSSANIKLDPLERQATQQIINNIKRKYPNATIENLQEVANDAIATMRQPEFSNYTVDKFVSYFLSM | -0.519 |
| HMSSARKVTVRGVRELPGIFMEKAEILDDGVRFFYRGEMEKLIGALQGLPIRDLTITEPDLEEVFLHFY | -1.48 |

| Sequence | soluble fraction (log2) |
| --- | --- |
| HMSSASETQYELALQAMRDGDNDAALRSLSTALASGFSDWQRIDEEPLLAALANDVRFQVLRSRWK | 0.0593 |
| HMSSDLVDYLVKYVAIVDNQEIEIADSKIGTAELGTTVSEVAKTVGNYYPKATVLSVKITGRNQEIVFEY | -2.91 |
| HMSSEPYISLPRGAAHDAYPLSTKAVAAQLGMSEVWLANLRSKGKGPRYVRVGTRVFYSPEDVAQWRRAT | -1.18 |
| HMSSESIIIKKLIEEFIHNENKYSPLSDEKLSYLLKNKGFSVARRTVAKYRDELGILSTRERKIKI | -1.76 |
| HMSSEYARFFSGNYYEVLGVAKNASYDEIKAAWKKLVKEYHPDLHPQRQEEFTKIIQKINEAYEYFKKMH | -0.583 |
| HMSSFFLIDVSQVRIGMYIQLDVGWMRHPFPVNSFRITNQEQLDTLRSLNLAQVRWSPAKSDL | -3.64 |
| HMSSFIEAIKQSGTDSLDVIMKNGRVYRYVGIDADRLGYLLEPHQQKLSLEESIGRFYIDYIKGIYEAIE | -1.47 |
| HMSSGNLESLLNKLHNEDYFVRLDAVKALGALGDPGAIDYLIEMLSENGIMRGWVANSLAALGEAQWKKII | -2.22 |
| HMSSHSAEAVRHRIKSMIDHEARDGDVLSDDRIVELLNQAGIDIARRTVAKYREALRIPSSVERKRRLKA | -0.163 |
| HMSSKRDQFIVLGQEILEKMFKNEGLEFSEKGLLAVMPNFEAESINDIYAKVGEGLISGWDVMKAVYPAY | -0.311 |
| HMSSKSLAALSPQEYRLLPLVAEGKTNKEIASALALSDKTVKNYLANIFSKLGITRRTQAATLYARAL | -0.338 |
| HMSSKYLKIYNDIVGKIDSGIFEANTKLPSESQLMDEYNVSRYTVRKSLNLLEQNGYIEKSKGKGSFVLDM | -1 |
| HMSSLQFVTLTLMEGHAWVGREIQELLMPPQMRIALIRRGDSQVIPKGSTILESADELILSAIEYQG | -4.48 |
| HMSSLREQVADALRAHLVSGRMRPGVLYSAPKLAAEFGVSATPVREAMLDLVSEGLVDVVRNKGFRVT | -0.597 |
| HMSSPPNPQLAKRYISYSVDDIARLFGIHRHTVREWIKRGLPVIDQQRPLLVQGADLAEFLRKRRA | -0.948 |
| HMSSPVIQINTRNDGWIIKLLQPAVEKDVLEGYLADVGLKLQSQMMEKILAAPAGTEFHIKRGSNILTE | -0.291 |
| HMSSQADEEALFKLLAANPYSDEQLEEIRIAIGSGIAYKDIIRIADIGNTAERMKQLRLEFTKDTAN | 0.173 |
| HMSSQGSLEKGYSALLDGRLDDAALAYGAALAANPMERDALLGLAYVAHSKGRREEAQALYRKVLR | -0.303 |
| HMSSSTFVGRVAVITIGEARQNSPAEARFKDRHGTTHYVMVEPMEDVVFKQGDKVLLVESAGATFKVIEPA | -1.58 |
| HMSSTSISFNDFQKYWLSNDIKSFQLREDKMTVQGSLKNGTAYETVVPSERLFQFIGQHPKD | 0.863 |
| HMSSVDLLSERERQVLARISRGMSNEEIAAELAITPRTVRNHLANIYGKIDVHSRAEAVVWARERGIT | -0.362 |
| HMSSVEQAILETLSKEHSHLTSLQVFEEIRGRLPAVNQSTVYRALERLVEQGVVSVSDMGTHAAVYE | -0.197 |
| HMSSVMMPDLTGESAIVAMERLQQLGLLPKVEEVDSYREPGIVLEQLPRAGEKIKRGRIAILKVSS | -0.0579 |
| HMSSVTGMERFLSSGAVKGIGKTMAARIVEHFGTETMTVLESFPERLAEVPGIGAKKAEAIGQSYSEISD | 0.158 |
| HMSSVVARRARIATLVVETSVASQEELGRLLADEGITVTQATLSRDLDALGAVKVLSADGGTRYRIPGQ | -1.87 |
| HMSSVVVARTWTDTTGDFKVEAELLGVEGGLVRLKKEDGTVLSVPIAKLSTADRTFLQENQP | 0.00842 |

| Sequence | soluble fraction (log2) |
| --- | --- |
| HMSSWEDNFSYWIRNVAETLDKDLLNVANSKLEKIIINAALDQTNGKKNEAAILLGLGRNTLAKKIKELG | -0.799 |
| HMSSWEEQLKIWAKNELASGNTDILARATVSFEQILIEAALTHTGGRKKTAAELLGWGRNTLTRKIKELHI | 0.0904 |
| HMSSWEVLAEPIQTVMRRYGVPGAYEKLKEVTRGKSLTAEALHALIRSLDIPQADKERLLALTPAAWA | -1.34 |
| HMSSYAEVMERSKYLQLHKYKIWKSETDGFWRTYYLNEQGKRKMKKLKHSEDMIDFVIEYVQNNE | -2.17 |
| HMSTDDILSSITALRLASVQFQLGQFDPALDSLKLVKEQAWSGAKNILAGDIQLAKGDKEAAKASYQQAQQ | -0.422 |
| HMSTDIPFNIFSQKWNADEIDSIVVENNKIEGKTKDNKKFSTYAPDELLTSLMENHKNPNVIVEFRAP | 0.576 |
| HMSTDKIDIVSSAILSSLKDNDGFIGLTDKSPPPEIYTAFRVSKKVFKQAIGALYKQRRITLESSGIRLIS | -0.288 |
| HMSTDSTQLLGFNKTGEELPIYKEANEENKFAEIPQNVYVKNFGQNGEFTKIKYLDQEGYVKTAGLK | 0.955 |
| HMSTEEYDRGYEQGLEEAAKADDAWVANLIKIYSQNTPESMPETMKGRLDAFLYEQQRRAQSVPEM | 0.918 |
| HMSTIAAMADPRAWALEMLGFPPGTVKPSKREIQVRFRESLRDVHPDHGGDSRTASASINDLSEARRVLLS | -0.36 |
| HMSTLGIRIKHYRTDSNLTQKELAGLINVKRDALANWETDRALPDVMNLKKLAEVFQVSTDELLQV | -1.02 |
| HMSTLTGTQRAAVVLMQMSPPNAARVMAQFTDAEAEEIAAEIVRLRKVDPEVAEQIMKDFHEAALSS | -0.226 |
| HMSTLTLTSGTYAVGENIKAGKYTIMGSGSIAISSSGKARVNSNLTADRKDYVLNDDETIKIKGKAQFIPI | -0.315 |
| HMSTMKIVRVKSNLKIGQEITSKDIEVVEVGAYNMPSEVMKNSEDVIGKYASAEMIKGEYVLAAKISDTP | 0.151 |
| HMSTMNRLPRHEQILKLVRANGFMPIEELARLLDVTPQTIRRDINTLSEENLLRRFHGGAALGPSVE | -0.371 |
| HMSTMTGTVDTPGASLNVRTGAWGPIVGQLAHGSKVTIIGSSGDWFKISYNGATRYVHKNYVNTT | -0.683 |
| HMSTMVEIPNVVGMTIKEAKEALGNLGLSISKISGSNEDSAIVTEVSPAPGSSVKRDESITLVGQPK | 0.683 |
| HMSTPAKVTPTNPIVKQLFNAAETQIKNKDIQNAIASYEKADTLTTDEKVKQYIHYQLSTLKDDN | -0.0812 |
| HMSTPERQEVLDILKRQGEMTPLQIAGQISRTSKSVSNILSKLKREGFVANGAKYGSWVSTES | -0.0675 |
| HMSTPTVDTKTKLDLYNLLYKKDLNYLDAYNFVLDNFGSDNIDIMFKMLGLDFTNWVIENKPE | 0.139 |
| HMSTQYKTGHYKTTDALNLRASYSTSSNVLLTIPKGKTIVVTRVHNNEWGQVEYNGKTGWIYLEYTAYTES | -1.85 |
| HMSTSAAELLRTARQQAGMSQSAVAELAKTSQSAIAMYEAGNREPSLPVLQRLLAATGHQLSLSVLP | -0.337 |
| HMSTTILSFQNRVVIETLHNEGRSLRYIANYLGFSKATIFNELHRLNSEYRAELAQADFERKVSQR | -3.06 |
| HMSTVAETVYNEIRDDILYGELQPGVKLKLEALRERYSVGVNTLREVLNRLVASGFVFVEGQKGFRVV | 0.365 |
